According to patent US20140220107A1:

How the values were obtained:
[1] = molecular target: HIV-1 Ba-L gp145 (HIV-1 Ba-L (subtype B)); assay: gp160 antigen capture ELISA, 4E10 as capture antibody; media of transfected HEK293 cells, 48 h (negative control 0.123)
[2] = molecular target: HIV-1 subtype C C06838v1c48 gp160 (HIV-1 subtype C isolate C06838v1c48); assay: as above
[3] = molecular target: HIV-1 subtype C C06838v1c48 gp160 DC (HIV-1 subtype C isolate C06838v1c48); assay: as above
[4] = molecular target: HIV-1 subtype C C06980v0c22 gp160 (HIV-1 subtype C isolate C06980v0c22); assay: as above
[5] = molecular target: HIV-1 subtype C C06980v0c22 gp160 DC (HIV-1 subtype C isolate C06980v0c22); assay: as above
[6] = molecular target: HIV-1 subtype C C06980v1c3 gp160 (HIV-1 subtype C isolate C06980v1c3); assay: as above
[7] = molecular target: HIV-1 subtype C C06980v1c3 gp160 DC (HIV-1 subtype C isolate C06980v1c3); assay: as above
[8] = molecular target: HIV-1 subtype C C3728v2c6 gp160 (HIV-1 subtype C isolate C3728v2c6); assay: as above
[9] = molecular target: HIV-1 subtype C C3728v2c6 gp160 DC (HIV-1 subtype C isolate C3728v2c6); assay: as above
[10] = molecular target: HIV-1 Ba-L gp145 (HIV-1 Ba-L (subtype B)); assay: gp160 antigen capture ELISA, 4E10 as capture antibody; cell lysate of transfected HEK293 cells, 48 h (negative control 0.156)
[11] = molecular target: HIV-1 subtype C C06838v1c48 gp160 (HIV-1 subtype C isolate C06838v1c48); assay: as above
[12] = molecular target: HIV-1 subtype C C06838v1c48 gp160 DC (HIV-1 subtype C isolate C06838v1c48); assay: as above
[13] = molecular target: HIV-1 subtype C C06980v0c22 gp160 (HIV-1 subtype C isolate C06980v0c22); assay: as above
[14] = molecular target: HIV-1 subtype C C06980v0c22 gp160 DC (HIV-1 subtype C isolate C06980v0c22); assay: as above
[15] = molecular target: HIV-1 subtype C C06980v1c3 gp160 (HIV-1 subtype C isolate C06980v1c3); assay: as above
[16] = molecular target: HIV-1 subtype C C06980v1c3 gp160 DC (HIV-1 subtype C isolate C06980v1c3); assay: as above
[17] = molecular target: HIV-1 subtype C C3728v2c6 gp160 (HIV-1 subtype C isolate C3728v2c6); assay: as above
[18] = molecular target: HIV-1 subtype C C3728v2c6 gp160 DC (HIV-1 subtype C isolate C3728v2c6); assay: as above
[19] = molecular target: HIV-1 Ba-L gp145 (HIV-1 Ba-L (subtype B)); assay: gp160 antigen capture ELISA, 2F5 as capture antibody; media of transfected HEK293 cells, 48 h (negative control 0.135)
[20] = molecular target: HIV-1 subtype C C06838v1c48 gp160 (HIV-1 subtype C isolate C06838v1c48); assay: as above
[21] = molecular target: HIV-1 subtype C C06838v1c48 gp160 DC (HIV-1 subtype C isolate C06838v1c48); assay: as above
[22] = molecular target: HIV-1 subtype C C06980v0c22 gp160 (HIV-1 subtype C isolate C06980v0c22); assay: as above
[23] = molecular target: HIV-1 subtype C C06980v0c22 gp160 DC (HIV-1 subtype C isolate C06980v0c22); assay: as above
[24] = molecular target: HIV-1 subtype C C06980v1c3 gp160 (HIV-1 subtype C isolate C06980v1c3); assay: as above
[25] = molecular target: HIV-1 subtype C C06980v1c3 gp160 DC (HIV-1 subtype C isolate C06980v1c3); assay: as above
[26] = molecular target: HIV-1 subtype C C3728v2c6 gp160 (HIV-1 subtype C isolate C3728v2c6); assay: as above
[27] = molecular target: HIV-1 subtype C C3728v2c6 gp160 DC (HIV-1 subtype C isolate C3728v2c6); assay: as above
[28] = molecular target: HIV-1 Ba-L gp145 (HIV-1 Ba-L (subtype B)); assay: gp160 antigen capture ELISA, 2F5 as capture antibody; cell lysate of transfected HEK293 cells, 48 h (negative control 0.150)
[29] = molecular target: HIV-1 subtype C C06838v1c48 gp160 (HIV-1 subtype C isolate C06838v1c48); assay: as above
[30] = molecular target: HIV-1 subtype C C06838v1c48 gp160 DC (HIV-1 subtype C isolate C06838v1c48); assay: as above
[31] = molecular target: HIV-1 subtype C C06980v0c22 gp160 (HIV-1 subtype C isolate C06980v0c22); assay: as above
[32] = molecular target: HIV-1 subtype C C06980v0c22 gp160 DC (HIV-1 subtype C isolate C06980v0c22); assay: as above
[33] = molecular target: HIV-1 subtype C C06980v1c3 gp160 (HIV-1 subtype C isolate C06980v1c3); assay: as above
[34] = molecular target: HIV-1 subtype C C06980v1c3 gp160 DC (HIV-1 subtype C isolate C06980v1c3); assay: as above
[35] = molecular target: HIV-1 subtype C C3728v2c6 gp160 (HIV-1 subtype C isolate C3728v2c6); assay: as above
[36] = molecular target: HIV-1 subtype C C3728v2c6 gp160 DC (HIV-1 subtype C isolate C3728v2c6); assay: as above

## 4E10 human monoclonal antibody to the gp41 MPER
[1]
  OD 450 nm: 2.42 OD 450 nm
[2]
  OD 450 nm: 0.146 OD 450 nm
[3]
  OD 450 nm: 0.162 OD 450 nm
[4]
  OD 450 nm: 2.53 OD 450 nm
[5]
  OD 450 nm: 2.61 OD 450 nm
[6]
  OD 450 nm: 0.926 OD 450 nm
[7]
  OD 450 nm: 1.1 OD 450 nm
[8]
  OD 450 nm: 0.589 OD 450 nm
[9]
  OD 450 nm: 0.681 OD 450 nm
[10]
  OD 450 nm: 2.55 OD 450 nm
[11]
  OD 450 nm: 2.65 OD 450 nm
[12]
  OD 450 nm: 2.7 OD 450 nm
[13]
  OD 450 nm: 2.74 OD 450 nm
[14]
  OD 450 nm: 2.62 OD 450 nm
[15]
  OD 450 nm: 2.72 OD 450 nm
[16]
  OD 450 nm: 2.59 OD 450 nm
[17]
  OD 450 nm: 2.78 OD 450 nm
[18]
  OD 450 nm: 2.65 OD 450 nm

## 2F5 human monoclonal antibody to the gp41 MPER
[19]
  OD 450 nm: 2.27 OD 450 nm
[20]
  OD 450 nm: 0.146 OD 450 nm
[21]
  OD 450 nm: 0.155 OD 450 nm
[22]
  OD 450 nm: 0.344 OD 450 nm
[23]
  OD 450 nm: 0.298 OD 450 nm
[24]
  OD 450 nm: 0.2 OD 450 nm
[25]
  OD 450 nm: 0.179 OD 450 nm
[26]
  OD 450 nm: 0.198 OD 450 nm
[27]
  OD 450 nm: 0.219 OD 450 nm
[28]
  OD 450 nm: 2.64 OD 450 nm
[29]
  OD 450 nm: 0.53 OD 450 nm
[30]
  OD 450 nm: 0.506 OD 450 nm
[31]
  OD 450 nm: 1.46 OD 450 nm
[32]
  OD 450 nm: 1.21 OD 450 nm
[33]
  OD 450 nm: 0.399 OD 450 nm
[34]
  OD 450 nm: 0.446 OD 450 nm
[35]
  OD 450 nm: 0.781 OD 450 nm
[36]
  OD 450 nm: 0.829 OD 450 nm
